From publication PMC6715661, “Cardiac MLC2 kinase is localized to the Z-disc and interacts with α-actinin2” (Scientific Reports, 2019) come the findings set out here.

The assay concerns the target T1, Myc-α-actinin2, full length, expressed in HEK293 cells (mouse, UniProt Q9JI91 1-894).
T1 construct: α-actinin2, cloned by RT-PCR from RNA of neonatal mouse hearts into pAdlox (pAdlox-Myc-α-actinin2), full length; also called Myc-tagged full-length α-actinin2; source: HEK293 cells, exogenous expression, in lysate (co-IP); purified from HEK293 cells (BLI)
Nature of the assay: BLI; Octet RED384, 30 °C; biotinylated anti-Myc antibody on streptavidin biosensors captures Myc-α-actinin2 (10 μg/ml, 100 nM); HA-cMLCK in solution, two-fold dilutions from 14 to 1.75 μg/ml; 20 mM Tris, 150 mM NaCl, 0.002% Tween, pH 7.3; global fit, 2:1 heterogeneous ligand analysis. To be noted: both partners purified. On the technique in general: Biolayer interferometry detects binding as a change in optical thickness at a sensor tip.

T1 sequence (Q9JI91 whole entry): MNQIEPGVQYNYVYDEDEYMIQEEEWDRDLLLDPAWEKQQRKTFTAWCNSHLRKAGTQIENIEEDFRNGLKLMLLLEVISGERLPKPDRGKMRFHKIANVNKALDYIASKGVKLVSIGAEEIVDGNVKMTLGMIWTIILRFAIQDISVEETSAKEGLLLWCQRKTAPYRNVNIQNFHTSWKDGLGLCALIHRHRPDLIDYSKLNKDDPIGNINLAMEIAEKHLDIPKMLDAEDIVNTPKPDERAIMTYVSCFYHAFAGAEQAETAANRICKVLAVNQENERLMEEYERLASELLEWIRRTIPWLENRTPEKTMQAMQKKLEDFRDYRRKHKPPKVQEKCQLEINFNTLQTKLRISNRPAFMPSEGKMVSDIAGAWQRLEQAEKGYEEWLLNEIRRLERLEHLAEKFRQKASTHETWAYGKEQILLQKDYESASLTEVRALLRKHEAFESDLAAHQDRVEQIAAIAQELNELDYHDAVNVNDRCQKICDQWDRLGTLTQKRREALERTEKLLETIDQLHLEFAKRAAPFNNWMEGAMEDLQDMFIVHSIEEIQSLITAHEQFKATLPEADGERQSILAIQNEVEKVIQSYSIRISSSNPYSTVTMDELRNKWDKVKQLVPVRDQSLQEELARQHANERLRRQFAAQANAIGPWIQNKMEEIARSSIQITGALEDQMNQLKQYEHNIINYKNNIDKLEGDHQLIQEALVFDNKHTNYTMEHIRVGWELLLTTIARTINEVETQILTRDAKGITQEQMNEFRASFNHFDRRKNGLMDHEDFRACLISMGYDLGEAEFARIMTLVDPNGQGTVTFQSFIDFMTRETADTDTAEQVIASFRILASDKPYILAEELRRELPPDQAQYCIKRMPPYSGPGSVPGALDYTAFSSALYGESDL

B1: HA-cMLCK, full length, expressed in HEK293 cells (enzyme, mouse, UniProt Q3UIZ8 1-795, looked up)
chain: MSGVSEEDPEGLAPQGLPALGGACLATMDKKLNVLTEKVDRLLHFQEDVTEKLQCVCQGMDHLEQDLHRLEASRELSLAGSGSTPPTTAQAAWPEVLELVRAVRQEGAQHGARLEALFKMVVAVDRAITLVGSTFQNSKVADFIMQGTVPGRKGSLADGPEENKEQAEVAGVKPNHVLTTGGVQADASRTLWEESQKEDIPVRTVEGLPLIINTSLKGADLTQAGASLRQGVEVLGPGQVPLPTEAESRLPETASENTGATLELSVAIDRISEVLTSLKMSQGGGQETSSSKPDCWLSEEAMRLSSGPLPQPLGPLTPDSDIHSGDALPRIPINMQEMATPGELLETQSGSPIGSAEAPGLGTVLEDQIPKGARPFPPLPKRSSNNGGMSAEEEIGSGAEPMRGPSLATRDWRDETVGTTDLQQGIDPGAVSPEPGKDHAAQGPGRTEAGRLSSAAEAAIVVLDDSAAPPAPFEHRVVSIKDTLISAGYTVSQHEVLGGGRFGQVHRCTERSTGLALAAKIIKVKNVKDREDVKNEVNIMNQLSHVNLIQLYDAFESKSSFTLIMEYVDGGELFDRITDEKYHLTELDVVLFTRQICEGVHYLHQHYILHLDLKPENILCVSQTGHQIKIIDFGLARRYKPREKLKVNFGTPEFLAPEVVNYEFVSFPTDMWSVGVITYMLLSGLSPFLGETDAETMNFIVNCSWDFDADTFKGLSEEAKDFVSRLLVKEKSCRMSATQCLKHEWLSHLPAKASGSNVRLRSQQLLQKYMAQSKWKKHFHVVTAVNRLRKFPTCP
notes: cardiac myosin light chain kinase (cMLCK), mouse, full length (residues to 795 by the printed deletion constructs); also called HA-MLCK; HA-full-length cMLCK; source: HEK293 cells, exogenous expression, in lysate (co-IP); purified (BLI)
As to B1, the Kd (as a rule, the constant that tells how readily two partners part at equilibrium) was determined as 13.4 nM; the koff (commonly the first-order rate constant of dissociation) was 0.000341 s⁻¹; the kon (commonly the second-order rate constant of association) is 25800 M⁻¹ s⁻¹.
